# Positions count from the first letter of the chain named. Square brackets hold non-standard residues; d marks the D form. Ends that are not written are not given here. Ahx = NCCCCCC(=O)O
# T1: neuropeptide Y2 receptor, P49146
# T1 chain: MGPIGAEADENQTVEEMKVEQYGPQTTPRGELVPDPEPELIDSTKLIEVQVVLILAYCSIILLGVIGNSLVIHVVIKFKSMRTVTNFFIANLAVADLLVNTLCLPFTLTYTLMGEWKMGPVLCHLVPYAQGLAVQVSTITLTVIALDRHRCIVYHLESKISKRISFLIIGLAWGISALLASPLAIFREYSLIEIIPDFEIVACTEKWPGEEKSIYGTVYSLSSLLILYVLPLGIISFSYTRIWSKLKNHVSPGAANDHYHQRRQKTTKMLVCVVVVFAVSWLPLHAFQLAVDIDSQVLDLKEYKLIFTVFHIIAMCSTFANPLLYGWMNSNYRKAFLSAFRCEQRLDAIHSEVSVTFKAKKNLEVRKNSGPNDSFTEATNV
# T2: neuropeptide Y5 receptor (Homo sapiens (Human)), Q15761
# T2 chain: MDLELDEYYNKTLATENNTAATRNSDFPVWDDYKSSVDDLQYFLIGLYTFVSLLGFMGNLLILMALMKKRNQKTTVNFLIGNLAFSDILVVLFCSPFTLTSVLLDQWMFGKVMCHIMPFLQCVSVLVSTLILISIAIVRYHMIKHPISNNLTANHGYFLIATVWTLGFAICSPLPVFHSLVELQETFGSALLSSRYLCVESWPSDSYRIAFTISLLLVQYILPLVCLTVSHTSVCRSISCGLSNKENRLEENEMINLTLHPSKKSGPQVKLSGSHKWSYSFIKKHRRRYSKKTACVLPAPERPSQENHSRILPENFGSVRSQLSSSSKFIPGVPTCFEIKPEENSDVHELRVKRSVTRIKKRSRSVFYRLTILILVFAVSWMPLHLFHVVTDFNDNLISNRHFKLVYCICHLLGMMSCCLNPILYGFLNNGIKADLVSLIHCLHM
# T3: neuropeptide Y1 receptor, P25929
# T3 chain: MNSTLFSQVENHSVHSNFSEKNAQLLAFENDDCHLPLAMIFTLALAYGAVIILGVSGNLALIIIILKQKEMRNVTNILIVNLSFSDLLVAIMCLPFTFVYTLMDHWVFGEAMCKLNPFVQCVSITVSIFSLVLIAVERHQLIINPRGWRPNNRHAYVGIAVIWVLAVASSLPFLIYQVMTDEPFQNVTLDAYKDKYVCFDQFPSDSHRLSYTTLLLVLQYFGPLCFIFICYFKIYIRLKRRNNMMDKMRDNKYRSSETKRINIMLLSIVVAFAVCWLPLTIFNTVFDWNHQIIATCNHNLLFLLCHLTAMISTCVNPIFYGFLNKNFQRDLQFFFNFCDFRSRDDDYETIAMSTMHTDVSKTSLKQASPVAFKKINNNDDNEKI
# B1: SEQ ID NO: 178 (peptide)
# peptide: YYASLRHYLNLVTRQRY
# modifications: not checked
# B2: SEQ ID NO: 177 (peptide)
# peptide: EELNRYYASLRHYLNLVTRQRY
# modifications: not checked
# B3: PYY(1-4)Aca(16-36) (peptide)
# peptide: YPIK[Ahx]ELNRYYASLRHYLNLVTRQRY
# modifications: ends and bridges not checked
# B4: SEQ ID NO: 477 (peptide)
# peptide: IAPEAPGEDASPEELAQYAADLRRYINMLTRQRY
# modifications: not checked
# B5: SEQ ID NO: 476 (peptide)
# peptide: YPIAPEAPGEDASPEELAQYAADLRRYINMLTRQRY
# modifications: not checked
# B6: SEQ ID NO 288 (peptide)
# peptide: APLEPVYPGDNATPEQMNRYYASLRHFLNLVTRQRY
# modifications: not checked
# B7: SEQ ID NO 306 (peptide)
# peptide: B6 peptide with R19K, F27Y
# modifications: not checked
# B8: SEQ ID NO 296 (peptide)
# peptide: B6 peptide with Q16E, M17L, F27Y
# modifications: not checked
# B9: SEQ ID NO 308 (peptide)
# peptide: B6 peptide with H26A, F27Y
# modifications: not checked
# B10: SEQ ID NO 297 (peptide)
# peptide: B6 peptide with T13S, Q16E, M17L, F27Y
# modifications: not checked
# B11: SEQ ID NO 293 (peptide)
# peptide: B6 peptide with R19K, F27Y
# modifications: not checked
# B12: SEQ ID NO 295 (peptide)
# peptide: B6 peptide with M17L, F27Y
# modifications: not checked
# B13: SEQ ID NO 289 (peptide)
# peptide: B6 peptide with F27Y, V31A, T32P
# modifications: not checked
# B14: SEQ ID NO 310 (peptide)
# peptide: B4 peptide with A2K, Q32P
# modifications: not checked
# B15: SEQ ID NO 316 (peptide)
# peptide: B5 peptide with A4K, A18N
# modifications: not checked
# B16: SEQ ID NO 318 (peptide)
# peptide: B5 peptide with P2A, A4K
# modifications: not checked
# B17: SEQ ID NO 321 (peptide)
# peptide: B5 peptide with A4K, R25K
# modifications: not checked
# B18: SEQ ID NO 342 (peptide)
# peptide: B5 peptide with A4K, E15D
# modifications: not checked
# B19: SEQ ID NO 341 (peptide)
# peptide: B5 peptide with A4K, E15Q
# modifications: not checked
# B20: SEQ ID NO 332 (peptide)
# peptide: B5 peptide with A4R
# modifications: not checked
# B21: SEQ ID NO 309 (peptide)
# peptide: B5 peptide with A4K, Q34P
# modifications: not checked
# B22: SEQ ID NO 317 (peptide)
# peptide: B5 peptide with A4K, A18N, D23S
# modifications: not checked
# B23: SEQ ID NO 347 (peptide)
# peptide: B5 peptide with A4K, D23E, N29Q
# modifications: not checked
# B24: SEQ ID NO 335 (peptide)
# peptide: B5 peptide with A4K, P8G, G9P
# modifications: not checked
# B25: SEQ ID NO: 179 (peptide)
# peptide: RHYLNLVTRQRY
# modifications: not checked
# B26: PP (human pancreatic polypeptide) (peptide)
# peptide: APLEPVYPGDNATPEQMAQYAADLRRYINMLTRPRY
# modifications: not checked
# B27: SEQ ID NO 202 (peptide)
# peptide: ASLRHYLNLVTRQRY
# modifications: not checked
# B28: SEQ ID NO 203 (peptide)
# peptide: ASLRHYLNLVTRQRY
# modifications: not checked
# Biological target: T1, neuropeptide Y2 receptor, P49146
# Assay: competition vs [125I]-hPYY, SK-N-BE membranes
row,Y2RBA [nM],Binder
1,0.29,B1
2,0.34,B2
3,0.21,B3

# Biological target: neuropeptide Y4 receptor
# Sequence (P50391 whole entry): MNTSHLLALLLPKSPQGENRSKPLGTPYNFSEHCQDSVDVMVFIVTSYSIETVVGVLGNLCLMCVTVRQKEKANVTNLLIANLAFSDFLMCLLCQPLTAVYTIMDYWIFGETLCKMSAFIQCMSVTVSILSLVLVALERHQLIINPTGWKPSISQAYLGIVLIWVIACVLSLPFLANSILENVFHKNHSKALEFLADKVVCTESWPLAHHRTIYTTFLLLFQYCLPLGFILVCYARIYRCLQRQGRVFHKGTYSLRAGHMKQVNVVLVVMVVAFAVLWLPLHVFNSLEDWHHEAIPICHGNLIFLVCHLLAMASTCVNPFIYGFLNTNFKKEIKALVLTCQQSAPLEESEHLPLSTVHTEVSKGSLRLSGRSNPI
# Assay: displacement of [125I]-human PP, Y4-transfected CHO-K1 membranes
row,Y4 RBA [nM],Binder
1,164,B4
2,53,B5

# Biological target: T1, neuropeptide Y2 receptor, P49146
# Assay: displacement of [125I]-human PYY, SK-N-BE membranes
row,Y2RBA [nM],Binder
1,4.4,B4
2,7.4,B5

# Biological target: neuropeptide Y5 receptor
# Assay: displacement of [125I]-human PYY, Y5-transfected CHO-K1 membranes
row,Y5RBA [nM],Binder
1,18,B4
2,15,B5

# Biological target: T2, neuropeptide Y5 receptor (Homo sapiens …)
# Assay: radioligand competition, [125I]-hPYY, Y5/CHO-K1 membranes
row,Y5RBA [nM],Binder
1,1.1,B6
2,0.27,B7
3,2.1,B8
4,1.4,B9
5,1.8,B10
6,0.48,B11
7,0.63,B12
8,0.83,B13
9,5.1,B14
10,1.1,B15
11,1.9,B16
12,5.6,B17
13,1.4,B18
14,0.3,B19
15,1,B20
16,1.5,B21
17,0.69,B22
18,51,B23
19,3.6,B24

# Biological target: T2, neuropeptide Y5 receptor (Homo sapiens …)
# Assay: competition vs [125I]-hPYY, Y5-transfected CHO-K1 membranes
row,Y5RBA [nM],Binder
1,17,B1
2,11,B2
3,5.8,B3

# Biological target: T1, neuropeptide Y2 receptor, P49146
# Assay: radioligand competition, [125I]-hPYY, SK-N-BE membranes
row,Y2RBA [nM],Binder
1,0.35,B6
2,0.16,B7
3,0.76,B8
4,0.56,B9
5,0.32,B10
6,0.18,B11
7,0.18,B12
8,454,B14
9,0.63,B15
10,1.3,B16
11,3.7,B17
12,0.62,B18
13,0.15,B19
14,0.54,B20
15,78,B21
16,0.097,B22
17,18,B23
18,0.72,B24

# Biological target: neuropeptide Y4 receptor
# Assay: competition vs [125I]-hPP, Y4-transfected CHO-K1 membranes
row,Y4 RBA [nM],Binder
1,38,B1
2,33,B25
3,46,B2
4,65,B3
5,0.034,B26

# Biological target: neuropeptide Y4 receptor
# Assay: radioligand competition, [125I]-hPP, Y4/CHO-K1 membranes
row,Y4 RBA [nM],Binder
1,23,B27
2,11,B6
3,1.2,B7
4,2.9,B8
5,2.1,B9
6,4,B10
7,0.87,B11
8,1,B12
9,48,B13
10,27,B14
11,52,B15
12,84,B16
13,57,B17
14,84,B18
15,11,B19
16,38,B20
17,5.6,B21
18,16,B22
19,740,B23
20,109,B24
21,108,B28

# Biological target: T3, neuropeptide Y1 receptor, P25929
# Assay: radioligand competition, [125I]-hPYY, SK-N-MC membranes
row,Y1RBA [nM],Binder
1,1.8,B6
2,0.6,B7
3,2.7,B8
4,1,B9
5,3.6,B10
6,0.82,B11
7,1,B12
8,29,B14
9,7.1,B15
10,100,B16
11,12,B17
12,15,B18
13,1.8,B19
14,13,B20
15,3.3,B21
16,4.3,B22
17,35,B23
18,34,B24

# Biological target: T3, neuropeptide Y1 receptor, P25929
# Assay: displacement of [125I]-human PYY, SK-N-MC membranes
row,Y1RBA [nM],Binder
1,265,B4
2,27,B5

# Biological target: T3, neuropeptide Y1 receptor, P25929
# Assay: competition vs [125I]-hPYY, SK-N-MC membranes
row,Y1RBA [nM],Binder
1,7.7,B1
2,5.8,B2
3,4.4,B3
